For this data set, the target named is T1, D-proline reductase PrdA protein derived from Peptoclostridium difficile 630, with 6X histidine tags at both termini (H6-prdA-H6).
T1 chain: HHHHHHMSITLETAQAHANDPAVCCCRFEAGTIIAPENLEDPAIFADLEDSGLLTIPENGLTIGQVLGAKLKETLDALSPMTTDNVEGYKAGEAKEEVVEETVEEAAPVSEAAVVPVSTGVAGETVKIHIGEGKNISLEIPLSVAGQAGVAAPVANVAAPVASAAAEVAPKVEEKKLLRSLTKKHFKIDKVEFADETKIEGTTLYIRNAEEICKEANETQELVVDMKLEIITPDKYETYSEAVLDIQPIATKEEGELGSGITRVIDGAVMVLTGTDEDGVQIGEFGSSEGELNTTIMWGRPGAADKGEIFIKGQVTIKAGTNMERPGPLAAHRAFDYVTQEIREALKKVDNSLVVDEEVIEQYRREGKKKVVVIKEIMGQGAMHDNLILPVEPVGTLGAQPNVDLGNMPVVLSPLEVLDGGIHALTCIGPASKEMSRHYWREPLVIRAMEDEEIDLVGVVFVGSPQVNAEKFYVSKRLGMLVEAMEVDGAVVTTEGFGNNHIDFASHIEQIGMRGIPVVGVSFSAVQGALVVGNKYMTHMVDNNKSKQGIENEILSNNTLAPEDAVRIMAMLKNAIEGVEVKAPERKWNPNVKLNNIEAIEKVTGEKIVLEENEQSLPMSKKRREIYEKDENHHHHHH

B1: D-proline reductase PrdB protein derived from Peptoclostridium difficile 630, with a 6X histidine tag at the carboxyl terminus (prdB-H6) (protein)
chain: MSLTTVQGLQSEIFVPITPPPVWTPVTKELKDMTIALATAAGVHLKSDKRFNLAGDTTFRAIPNTATVDEMMVSHGGYDNGDVNKDINCMFPIDRLHELAAEGFIKGVAPMHYAFMGGGGNQHVFTEETGPAIAAKLKEEGVDGVVMTAGGTCHRTAVIVQRAIEEAGIPTIIIAALPPVVRQNGTPRAVAPLVPMGANAGEPHNIEMQTHILRDTLEQLVAIPSAGKIVPLPYEYKAHVHHHHHH
With B1, the “self-cleavage of PrdA protein (Western blot of lysates of co-expressing E. coli)” value was “PrdH protein and PrdB protein must exist at the same time to induce self-cleavage of PrdA protein”.
